Experimental data reported in paper PMC4789767, “Application of linker technique to trap transiently interacting protein complexes for structural studies” (Journal of Biological Methods, 2016).

Molecular target: T1, Calmodulin (CaM), wild type, full length (UniProt P0DP26 1-149)
T1 construct: Used without calcium (buffer with 2 mM EGTA); also called WT CaM; apo-CaM; source: purified, as described previously [19]
Test: ITC; VP-ITC; 150 µM CaM (WT or mutant) in the syringe, 10 µM full-length Nm/Ng (WT or mutant) in the cell; Buffer A (20 mM imidazole pH 8.0, 100 mM NaCl, 2 mM EGTA); 25°C; 30 injections of 10 µl
Details: both partners purified

binding result: binds
B1: Neuromodulin (Nm), wild type, full length (natural protein)
chain: MLCCMRRTKQVEKNDEDQKIEQDGVKPEDKAHKAATKIQASFRGHITRKKLKGEKKGDAPAAEAEAKEKDDAPVADGVEKKEGDGSATTDAAPATSPKAEEPSKAGDAPSEEKKGEGDAAPSEEKAGSAETESAAKATTDNSPSSKAEDGPAKEEPKQADVPAAVTDAAATTPAAEDAATKAAQPPTETAESSQAEEEKDAVDEAKPKESARQDEGKEDPEADQEHA
notes: also called WT Nm; source: purified, as described previously [19]
